Laboratory results: PMC11189300

B1: KNL1 residues 2,026–2,342 [human] / Mis12 complex full length: MIS12, PMF1, NSL1, DSN1 [human] (parent)
chain 1: SAQNEREKLQIKIDEMDKILKKIDNCLTEMETETKNLEDEEKNNPVEEWDSEMRAAEKELEQLKTEEEELQRNLLELEVQKEQTLAQIDFMQKQRNRTEELLDQLSLSEWDVVEWSDDQAVFTFVYDTIQLTITFEESVVGFPFLDKRYRKIVDVNFQSLLDEDQAPPSSLLVHKLIFQYVEEKESWKKTCTTQHQLPKMLEEFSLVVHHCRLLGEEIEYLKRWGPNYNLMNIDINNNELRLLFSSSAAFAKFEITLFLSAYYPSVPLPSTIQNHVGNTSQDDIATILSKVPLENNYLKNVVKQIYQDLFQDCHFYH
chain 2: MSVDPMTYEAQFFGFTPQTCMLRIYIAFQDYLFEVMQAVEQVILKKLDGIPDCDISPVQIRKCTEKFLCFMKGHFDNLFSKMEQLFLQLILRIPSNILLPEDKCKETPYSEEDFQHLQKEIEQLQEKYKTELCTKQALLAELEEQKIVQAKLKQTLTFFDELHNVGRDHGTSDFRESLVSLVQNSRKLQNIRDNVEKESKRLKIS
chain 3: MAEASSANLGSGCEEKRHEGSSSESVPPGTTISRVKLLDTMVDTFLQKLVAAGSYQRFTDCYKCFYQLQPAMTQQIYDKFIAQLQTSIREEISDIKEEGNLEAVLNALDKIVEEGKVRKEPAWRPSGIPEKDLHSVMAPYFLQQRDTLRRHVQKQEAENQQLADAVLAGRRQVEELQLQVQAQQQAWQALHREQRELVAVLREPE
chain 4: MAGSPELVVLDPPWDKELAAGTESQALVSATPREDFRVRCTSKRAVTEMLQLCGRFVQKLGDALPEEIREPALRDAQWTFESAVQENISINGQAWQEASDNCFMDSDIKVLEDQFDEIIVDIATKRKQYPRKILECVIKTIKAKQEILKQYHPVVHPLDLKYDPDPAPHMENLKCRGETVAKEISEAMKSLPALIEQGEGFSQVLRMQPVIHLQRIHQEVFSSCHRKPDAKPENFITQIETTPTETASRKTSDMVLKRKQTKDCPQRKWYPLRPKKINLDT
chain 5: MTSVTRSEIIDEKGPVMSKTHDHQLESSLSPVEVFAKTSASLEMNQGVSEERIHLGSSPKKGGNCDLSHQERLQSKSLHLSPQEQSASYQDRRQSWRRASMKETNRRKSLHPIHQGITELSRSISVDLAESKRLGCLLLSSFQFSIQKLEPFLRDTKGFSLESFRAKASSLSEELKHFADGLETDGTLQKCFEDSNGKASDFSLEASVAEMKEYITKFSLERQTWDQLLLHYQQEAKEILSRGSTEAKITEVKVEPMTYLGSSQNEVLNTKPDYQKILQNQSKVFDCMELVMDELQGSVKQLQAFMDESTQCFQKVSVQLGKRSMQQLDPSPARKLLKLQLQNPPAIHGSGSGSCQ

Variants of: B1
Assay: ITC
Settings: with Mis12 complex (Mis12C), syringe KNL1^M1, cell Mis12C^WT

screen value	Variant
1.2	chain 1 M231A S247W F250A K252A

Same assay, conditions: with Mis12 complex (Mis12C), syringe KNL1^M1, cell Mis12C^WT, parent: -12

dG	Variant
-9.35	chain 1 M231A S247W F250A K252A

Same assay, conditions: with Mis12 complex (Mis12C), syringe KNL1^M2, cell Mis12C^WT

screen value	Variant
-16.1	chain 1 M231A S247W F250A K252E

Same assay, conditions: with Mis12 complex (Mis12C), syringe KNL1^M2, cell Mis12C^WT, parent: -12

dG	Variant
-9.5	chain 1 M231A S247W F250A K252E

Same assay, conditions: with KNL1 residues 2,026–2,342 [human]; syringe KNL1^WT; cell Mis12C^M2

screen value	Variant
-14.3	chain 3 R195E V198L, chain 5 L290F

Same assay, conditions: with KNL1 residues 2,026–2,342 [human]; syringe KNL1^WT; cell Mis12C^M2; parent: -12

dG	Variant
-10.4	chain 3 R195E V198L, chain 5 L290F

Same assay, conditions: with KNL1 residues 2,026–2,342 [human]; syringe KNL1^WT; cell Mis12C^M1

screen value	Variant
5.83	chain 3 R195A V198L, chain 5 L290F
